Assay results taken from patent publication US20070065444A1 (Amgen, published 2007).
Positions count from the first letter of the chain named. In names and notes the source's numbering stands. Read-outs that look alike come from different tables or passages of the source.

T1: Cynomolgus monkey ALK-1 (full-length, cell surface) (cynomolgus monkey, UniProt P37023 22-503 (human entry))
T1 construct: also called Cyno ALK-1
T1 chain: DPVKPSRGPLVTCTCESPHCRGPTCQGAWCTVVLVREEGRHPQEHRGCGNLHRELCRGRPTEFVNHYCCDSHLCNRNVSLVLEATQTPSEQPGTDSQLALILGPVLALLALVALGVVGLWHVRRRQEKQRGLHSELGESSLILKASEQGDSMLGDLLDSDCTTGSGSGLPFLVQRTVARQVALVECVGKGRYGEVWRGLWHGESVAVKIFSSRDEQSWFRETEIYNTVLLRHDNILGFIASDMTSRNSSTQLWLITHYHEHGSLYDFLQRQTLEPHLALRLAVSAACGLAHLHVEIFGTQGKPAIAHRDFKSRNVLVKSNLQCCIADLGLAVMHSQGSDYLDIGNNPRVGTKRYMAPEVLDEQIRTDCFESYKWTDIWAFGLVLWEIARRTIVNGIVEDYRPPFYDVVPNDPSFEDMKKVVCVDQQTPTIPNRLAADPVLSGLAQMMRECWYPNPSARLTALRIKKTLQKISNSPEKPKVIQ

T2: cynomologus ALK-1/Fc fusion protein (cynomolgus monkey, UniProt Q5RAN0 22-118 (Pongo abelii entry))
T2 construct: also called cALK-1/Fc; not shown: Fc part and any linker not described
T2 chain: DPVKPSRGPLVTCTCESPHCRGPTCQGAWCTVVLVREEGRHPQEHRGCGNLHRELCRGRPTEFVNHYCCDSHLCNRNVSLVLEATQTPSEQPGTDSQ

B1: 1.183.1 (antibody, human IgG2, V domains shown)
VH: QVQLQESGPGLVKPSETLSLTCTVSGGSISSYYWSWIRQPPGKGLEWIGYIYYSGSTNYNPSLKSRVTISVDTSKNQFSLKLSSVTAADTAVYYCAREDDSSGCPYFDYWGQGTLVTASS
VL: EIVMTQSPATLSVSPGERATLSCRASQSVSSNLAWYQQKPGQAPRVLIYGASTRATGIPVRFSGSGSGTEFTLTISSLQSEDFAVYYCQQYNNWPFTFGPGTKVDIK
B2: 1.12.1(rWT) (antibody, human IgG2, kappa)
heavy: QVQLQESGPGLVKPSQTLSLTCTVSGGSMSSGEYYWNWIRQHPGKGLEWIGYIYYSGSTYYNPSLKSRVTISVDTSKNQFSLKLSSVTAADTAVYYCARESVAGFDYWGQGTLVTVSSASTKGPSVFPLAPCSRSTSESTAALGCLVKDYFPEPVTVSWNSGALTSGVHTFPAVLQSSGLYSLSSVVTVPSSNFGTQTYTCNVDHKPSNTKVDKTVERKCCVECPPCPAPPVAGPSVFLFPPKPKDTLMISRTPEVTCVVVDVSHEDPEVQFNWYVDGVEVHNAKTKPREEQFNSTFRVVSVLTVVHQDWLNGKEYKCKVSNKGLPAPIEKTISKTKGQPREPQVYTLPPSREEMTKNQVSLTCLVKGFYPSDIAVEWESNGQPENNYKTTPPMLDSDGSFFLYSKLTVDKSRWQQGNVFSCSVMHEALHNHYTQKSLSLSPGK
light: not shown
notes: mAb 1.12.1 expressed as a recombinant mAb; also called recombinant wild-type mAb 1.12.1
B3: 1.12.1 (antibody, human IgG2, kappa)
heavy: B2 heavy
light: not shown
notes: Hybridoma-derived human IgG2 kappa antibody; also called mAb 1.12.1 isolated from the hybridoma; hybridoma LN 15916, ATCC PTA-6808
B4: 1.12.1(D19A) (antibody, human IgG2, kappa)
heavy: B2 heavy
light: not shown
notes: Recombinant 1.12.1 with the single light-chain mutation D19A
B5: 1.162.1 (antibody, human IgG2, V domains shown)
VH: QVQLQESGPGLVKPSQTLSLICTVSGGSISSGEYYWSWIRQHPGKGLEWIGYIYYSGSTYYNPSLKSRLTISVDTSKNQFSLKLSSVTAADTAVYYCAREGIGAFDIWGQGTMVTVSS
VL: EIVLTQSPGTLSLSPGERATLSCRASQSVSSSYLAWYQQKPGQAPRLLIYGASSRATGIPDRFSGSGSGTDFTLTIIRLDPEDFAVYYCQRYGSSPITFGQGTRLEIK
notes: Human IgG2 kappa antibody from a hybridoma
B6: 1.13.1 (antibody, human IgG2, V domains shown)
VH: QVHLQESGPGLVKPSETLSLTCTVSGGSVSSGDYYWNWIRQPPGKGLEWIGYIYYSGSTNYNPSLKSRITISIDTSKNQFSLKLNSVTAADTALYYCARESVAAFDYWGQGTLVTVSS
VL: B5 VL with V29I, S32R, K40E, I77S, D80E, R91H
B7: 4.58.1 (antibody, human IgG2, V domains shown)
VH: QVQLQESGPGLVKPSQTLSLTCTVSGGSISSGDYYWNWIRQHPGKGLEWIGYIYYSGSTYYNPSLKSRVTISVATSKNQFSLKLSSVTAADTAVYYCAREATEGFDYWGQGTLVTVSS
VL: B5 VL with S31T, S32T, I77S, D80E, V86L, R91H, S94T, P96S
notes: as for B5
B8: 1.11.1 (antibody, human IgG2, V domains shown)
VH: QVQLVESGGGVVQPGRSLRLSCAASGFTFSSHGMYWVRQAPGKGLEWVAAIWYDGSNKYYADSVKGRFTISRDNSKNTLYLQMNSLRAEDTAVYYCARDQEQWPDVFDIWGQGTMVTVSS
VL: DIQMTQSPSSLSASVGDRVTITCRASQGIRNYLAWFQQKPGKAPKSLIYGASSLQSGVPSKFSGSGSGTDFTLTISSLQPEDFATYYCQQYNSYPLTFGGGTKVEIK
notes: as for B5
B9: 4.38.1 (antibody, human IgG2, V domains shown)
VH: QVQLQESGPGLVKPSQTLSLTCTVSGGSISSGDYYWSWIRQHPGKGLEWIGYIYYSGSTYYNPSLKSRVTISIDTSKNQFSLKLSSVTAADTAVYYCARERDYGGGFDYWGQGTLVTVSS
VL: not shown
notes: as for B5
B10: 4.62.1 (antibody, V domains shown)
VH: B7 VH with A74D, A101S, E103D, F105M, Y107V, L113T
VL: not shown
notes: as for B5
B11: 4.24.1 (antibody, human IgG2, V domains shown)
VH: B7 VH with G32N, A74D, A101S, E103D, F105M, Y107V, L113T
VL: B5 VL with I2N, S32N, R55G, I77S, D80E, R91H
notes: as for B5
B12: 4.72.1 (antibody, human IgG2, V domains shown)
VH: B7 VH with D33E, N37S, Y54F, V73L, A74D, A101S, E103D, F105M, Y107V, L113T
VL: B5 VL with Q39R, A52V, I77S, D80E, R91Q, P96M
notes: as for B5

What was measured:
[1] = biological target: T3, human ALK-1 (full-length, cell surface) (human, UniProt P37023 22-503); assay: cell-based or functional assay
[2] = biological target: T1, Cynomolgus monkey ALK-1 (full-length, …); assay: FACS, 293 stable cells overexpressing full-length Cyno ALK-1, anti-human kappa R-PE secondary, geometric mean against mAb concentration
[3] = biological target: T3, human ALK-1 (full-length, cell surface); assay: FACS, 293 stable cells overexpressing full-length human ALK-1, anti-human kappa R-PE secondary, geometric mean against mAb concentration
[4] = biological target: T1, Cynomolgus monkey ALK-1 (full-length, …); assay: FACS on 293 cells overexpressing Cyno ALK-1
[5] = biological target: T1, Cynomolgus monkey ALK-1 (full-length, …); assay: FACS on 293 cells overexpressing Cyno ALK-1
[6] = biological target: T3, human ALK-1 (full-length, cell surface); assay: FACS on 293 cells overexpressing human ALK-1
[7] = biological target: T4, recombinant human ALK-1/Fc fusion protein (human, UniProt P37023 22-118); assay: SPR (BIAcore 3000), hALK-1/Fc immobilized, antibody as analyte
T4 construct: range 22-118; Disulfide-linked homodimer; also called hALK-1/Fc; recombinant human ALK-1/Fc chimera; not shown: Fc region of human IgG

[8] = biological target: T2, cynomologus ALK-1/Fc fusion protein; assay: SPR (BIAcore 3000), cALK-1/Fc immobilized, antibody as analyte
[9] = biological target: T4, recombinant human ALK-1/Fc fusion …; assay: SPR (BIAcore 3000) cross-competition on immobilized human ALK-1/Fc chimera
monomeric ALK-ECD = biological target: T5, monomeric ALK-ECD (human, UniProt P37023 22-118); assay: SPR (BIAcore 3000), antibody immobilized, monomeric ALK-ECD as analyte (Example 8, different ECD preparation)
T5 construct: also called ALK-1 ECD His-Tag protein; Human ALK-1 ECD His-Tag Protein

Binder	ID1 Taqman IC50 [1] [nM]	pSmad1 Western IC50 nM [1] [nM]	Kd [5] [nM]	Kd [6] [nM]	other results
B1	58	17			
B2					EC50 (read off the curve) [2]: ~5 nM; EC50 (read off the curve) [3]: ~5 nM
B3			2		Kd [4]: 2 nM
B4					EC50 (read off the curve) [2]: ~3 nM; EC50 (read off the curve) [3]: ~5 nM; Kd [4]: 3.8 nM
B5	75	15	3	5.6	Avidity [7]: 18 pM; koff [7]: 1.1e-05 s⁻¹; Avidity [8]: 62 pM
B6	100	87			
B7	14	15		14	
B8					binding result [9]: binds
B9	87	52		9.3	Avidity [7]: 100 pM; Avidity [8]: 150 pM
B10					Avidity [7]: 9.6 pM; Avidity [8]: 19 pM
B11	100	82	3.1	7.6	
B12	21	35	3.8	6.4	Kd (monomeric ALK-ECD): 0.8 nM; koff (monomeric ALK-ECD): 2.5e-05 s⁻¹; kon (monomeric ALK-ECD): 32000 M⁻¹ s⁻¹
